Measured values published in paper PMC9206387, “LILRB2-mediated TREM2 signaling inhibition suppresses microglia functions” (Molecular Neurodegeneration, 2022).
Blank lines part the entries; values can stand above or below the binder they belong to.

Target: T1, oligomeric β-amyloid (1-42) (UniProt P05067 672-713)
T1 construct: the cut product β-amyloid (1-42) of the amyloid precursor protein; Oligomer; The methods of the direct BLI, reporter and BiFc assays name no label for oAβ; also called oAβ; Oligomer Aβ; source: bought: AnaSpec (lyophilized powder); HFIP-treated, dissolved in DMSO, oligomerised in DPBS at 37 °C overnight
Assay: BLI; protein A sensor-captured Fc fusion proteins, oAβ at multiple concentrations, 1:1 binding model, KD calculated as kdis/kon
Settings: both partners purified

Kd: 69.3 nM
koff: 0.000593 s⁻¹
B1: LILRB2-Fc fusion protein (extracellular domain of LILRB2 fused to human IgG1 Fc) (Fc fusion, UniProt Q8N423 22-460, looked up)
chain: QTGTIPKPTLWAEPDSVITQGSPVTLSCQGSLEAQEYRLYREKKSASWITRIRPELVKNGQFHIPSITWEHTGRYGCQYYSRARWSELSDPLVLVMTGAYPKPTLSAQPSPVVTSGGRVTLQCESQVAFGGFILCKEGEDEHPQCLNSQPHARGSSRAIFSVGPVSPNRRWSHRCYGYDLNSPYVWSSPSDLLELLVPGVSKKPSLSVQPGPVMAPGESLTLQCVSDVGYDRFVLYKEGERDLRQLPGRQPQAGLSQANFTLGPVSRSYGGQYRCYGAHNLSSECSAPSDPLDILITGQIRGTPFISVQPGPTVASGENVTLLCQSWRQFHTFLLTKAGAADAPLRLRSIHEYPKYQAEFPMSPVTSAHAGTYRCYGSLNSDPYLLSHPSEPLELVVSGPSMGSSPPPTGPISTPGPEDQPLTPTGSDPQSGLGRHLGV
notes: leukocyte immunoglobulin-like receptor subfamily B member 2 (LILRB2), extracellular domain (ECD) with four Ig-like domains; source: Expi 293 cells, purified (protein A agarose)

Kd: 12.6 nM
koff: 0.000123 s⁻¹
B2: TREM2-Fc fusion protein (extracellular domain of TREM2 fused to human IgG1 Fc) (Fc fusion, UniProt Q9NZC2 19-174, looked up)
chain: HNTTVFQGVAGQSLQVSCPYDSMKHWGRRKAWCRQLGEKGPCQRVVSTHNLWLLSFLRRWNGSTAITDDTLGGTLTITLRNLQPHDAGLYQCQSLHGSEADTLRKVLVEVLADPLDHRDAGDLWFPGESESFEDAHVEHSISRSLLEGEIPFPPTS
notes: triggering receptor expressed on myeloid cells 2 (TREM2), extracellular domain (ECD); source: Expi 293 cells, purified (protein A agarose)
